Data taken from patent publication US20140005098A1.

Tests used:
IGF-I = IGF-I (UniProt P05019); assay: competition binding with 125I-IGF-I tracer and unlabelled IGF-I as competitor, Scatchard analysis
IGF-II = IGF-II (UniProt P01344); assay: competition binding with 125I-IGF-I tracer and unlabelled IGF-II as competitor, Scatchard analysis
Chain of IGF-II (P01344 25-91 limits assumed): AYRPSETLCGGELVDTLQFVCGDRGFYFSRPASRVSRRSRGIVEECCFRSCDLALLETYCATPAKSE

Chain of IGF-I (P05019 49-118 limits assumed): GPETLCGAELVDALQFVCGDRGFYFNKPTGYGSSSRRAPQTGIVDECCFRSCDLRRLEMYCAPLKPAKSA

- Ka (IGF-I): 2.4e+10 M⁻¹
- Ka (IGF-II): 3.14e+10 M⁻¹
Substance: mini-IGFBP-3 (mutated recombinant IGFBP-3; H6-mini-IGFBP-3) (from UniProt P17936 28-121; P17936 207-291)
